Source: PMC3074120 (Nucleic Acids Research, 2010)

B1: NHA-Δ12 (GW182 fragment Δ12, amino acids 896-1219) (domain or fragment)
chain: FTWGNNINPNNSSGWDESSKPTPSQGWGDPPKSNQSLGWGDSSKPVSSPDWNKQQDIVGSWGIPPATGKPPGTGWLGGPIPAPAKEEEPTGWEEPSPESIRRKMEIDDGTSAWGDPSKYNYKNVNMWNKNVPNGNSRSDQQAQVHQLLTPASAISNKEASSGSGWGEPWGEPSTPATTVDNGTSAWGKPIDSGPSWGEPIAAASSTSTWGSSSVGPQALSKSGPKSMQDGWCGDDMPLPGNRPTGWEEEEDVEIGMWNSNSSQELNSSLNWPPYTKKMSSKGLSGKKRRRERGMMKGGNKQEEAWINPFVKQFSNISFSRDSPE
B2: NHA-Δ12a (GW182 fragment Δ12a, amino acids 896-1045) (domain or fragment)
chain: FTWGNNINPNNSSGWDESSKPTPSQGWGDPPKSNQSLGWGDSSKPVSSPDWNKQQDIVGSWGIPPATGKPPGTGWLGGPIPAPAKEEEPTGWEEPSPESIRRKMEIDDGTSAWGDPSKYNYKNVNMWNKNVPNGNSRSDQQAQVHQLLTP
B3: NHA-Δ5 (GW182 fragment Δ5, amino acids 1670-1962) (domain or fragment)
chain: TSAWSSIRASNYNVPLSSTAQSTSARNSDSKLTWSPGSVTNTSLAHELWKVPLPPKNITAPSRPPPGLTGQKPPLSTWDNSPLRIGGGWGNSDARYTPGSSWGESSSGRITNWLVLKNLTPQIDGSTLRTLCMQHGPLITFHLNLPHGNALVRYSSKEEVVKAQKSLHMCVLGNTTILAEFASEEEISRFFAQSQSLTPSPGWQSLGSSQSRLGSLDCSHSFSSRTDLNHWNGAGLSGTNCGDLHGTSLWGTPHYSTSLWGPPSSSDPRGISSPSPINAFLSVDHLGGGGESM
B4: NHA-Δ10 (GW182 fragment Δ10, amino acids 655-1343) (domain or fragment)
chain: QTNEQSSVWAKTGGTVESDGSTESTGRLEEKGTGESQSRDRRKIDQHTLLQSIVNRTDLDPRVLSNSGWGQTPIKQNTAWDTETSPRGERKTDNGTEAWGSSATQTFNSGACIDKTSPNGNDTSSVSGWGDPKPALRWGDSKGSNCQGGWEDDSAATGMVKSNQWGNCKEEKAAWNDSQKNKQGWGDGQKSSQGWSVSASDNWGETSRNNHWGEANKKSSSGGSDSDRSVSGWNELGKTSSFTWGNNINPNNSSGWDESSKPTPSQGWGDPPKSNQSLGWGDSSKPVSSPDWNKQQDIVGSWGIPPATGKPPGTGWLGGPIPAPAKEEEPTGWEEPSPESIRRKMEIDDGTSAWGDPSKYNYKNVNMWNKNVPNGNSRSDQQAQVHQLLTPASAISNKEASSGSGWGEPWGEPSTPATTVDNGTSAWGKPIDSGPSWGEPIAAASSTSTWGSSSVGPQALSKSGPKSMQDGWCGDDMPLPGNRPTGWEEEEDVEIGMWNSNSSQELNSSLNWPPYTKKMSSKGLSGKKRRRERGMMKGGNKQEEAWINPFVKQFSNISFSRDSPEENVQSNKMDLSGGMLQDKRMEIDKHSLNIGDYNRTVGKGPGSRPQISKESSMERNPYFDKDGIVADESQNMQFMSSQSMKLPPSNSALPNQALGSIAGLGMQNLNSVRQNGNPSMFGVGNTAAQ

target: GST-PIWI (PIWI domain of Ago2) (human, UniProt Q9UKV8 517-818); test: pull-down
Sequence (Q9UKV8 517-818): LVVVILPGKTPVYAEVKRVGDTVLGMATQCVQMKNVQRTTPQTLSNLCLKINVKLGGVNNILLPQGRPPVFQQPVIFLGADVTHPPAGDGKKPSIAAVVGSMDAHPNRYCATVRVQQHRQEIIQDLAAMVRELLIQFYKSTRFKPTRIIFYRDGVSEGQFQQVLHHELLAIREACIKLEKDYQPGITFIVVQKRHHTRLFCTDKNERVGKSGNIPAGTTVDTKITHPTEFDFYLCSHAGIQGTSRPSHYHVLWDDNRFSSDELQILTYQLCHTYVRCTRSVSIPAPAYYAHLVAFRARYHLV

Binder	percent pull-down (of input)
B1	18%
B2	0.2%
B3	4.2%
B4	≤ 85%
